Data taken from US20230381334A1.
Non-standard residues stand in square brackets, D forms with d. No end group written: not given here.

molecular target: mouse anti V5 antibody (Thermo Scientific); assay: ELISA: 1 ug/ml mouse anti V5 with increasing SADC, complexes captured on streptavidin via biotinylated SADC peptide, bound IgG detected with anti mouse IgG-HRP

| Binder | EC50 |
| --- | --- |
| IPNPLLGLDGGSGDYKDDDDKGK[BiotinAca]GC (peptide, part only; not given: transferrin scaffold, part only, also: bound to transferrin scaffold, attachment site not given here) [SADC with transferrin scaffold carrying tagged V5 peptide …-(BiotinAca)GC] | 0.007 µg/mL |
| IPNPLLGLDGGSGDYKDDDDKGK[BiotinAca]GC (peptide, part only; not given: albumin scaffold, part only, also: bound to albumin scaffold, attachment site not given here) [SADC with albumin scaffold carrying tagged V5 peptide …-(BiotinAca)GC] | 0.0279 µg/mL |
| IPNPLLGLDGGSGDYKDDDDKGK[BiotinAca]GC (peptide, part only; not given: haptoglobin scaffold, part only, also: bound to haptoglobin scaffold, attachment site not given here) [SADC with haptoglobin scaffold carrying tagged V5 peptide …-(BiotinAca)GC] | 0.0555 µg/mL |
